The values that follow come from US20130115635A1.

Experiment [1] has as its target Peptide N-YEPEA-C. In words: ITC, 298.1 K. A general note: ITC needs no label: the signal is the heat of the interaction.
The target in experiment [2] is Peptide N-YEPEA-C. In words: ITC, 310.1 K.
Experiment [3] deals with Peptide N-YEPEA-C. In words: ITC, 303.1 K.
Experiment [4] addresses Peptide N-YEPEA-C. The experiment is described as follows: ITC, 293.1 K.

B1: NbSyn2 (VHH)
VHH: QGQLVESGGGSVQAGGSLRLSCAASGIDSSSYCMGWFRQRPGKEREGVARINGLGGVKTAYADSVKDRFTISRDNAENTVYLQMNSLKPEDTAIYYCAAKFSPGYCGGSWSNFGYWGQGTQVTVSS
With B1, the Kd (as a rule, the concentration at which binding is half-saturated) amounted to 190 nM with Peptide N-YEPEA-C [1], 850 nM with Peptide N-YEPEA-C [2], 460 nM with Peptide N-YEPEA-C [3] and 240 nM in the experiment with Peptide N-YEPEA-C [4]. The Stoichiometry with Peptide N-YEPEA-C [1] is 0.99; with Peptide N-YEPEA-C [2], 0.92; with Peptide N-YEPEA-C [3], 0.94; in the experiment with Peptide N-YEPEA-C [4] it was 0.98.
